Measurements taken from article PMC2647517 (Biochemistry, 2008).
Where two headings read alike, the source gives them in different places.

What was measured:
[1] = target: the molecule itself; experiment: SEC
[2] = target: the molecule itself; experiment: SEC; remark: listed apart in the source
[3] = target: the molecule itself; experiment: SEC + cross-linking
[4] = target: the molecule itself; experiment: SEC + cross-linking; remark: listed apart in the source
[5] = target: the molecule itself; experiment: cross-linking
[6] = target: the molecule itself

B1: Escherichia coli manganese superoxide dismutase, wild type (apoprotein) (enzyme, UniProt P00448 1-206, looked up)
chain: MSYTLPSLPYAYDALEPHFDKQTMEIHHTKHHQTYVNNANAALESLPEFANLPVEELITKLDQLPADKKTVLRNNAGGHANHSLFWKGLKKGTTLQGDLKAAIERDFGSVDNFKAEFEKAAASRFGSGWAWLVLKGDKLAVVSTANQDSPLMGEAISGASGFPIMGLDVWEHAYYLKFQNRRPDYIKEFWNVVNWDEAAARFAAKK
For B1, which “stoichiometry N” value [1] is on record?
Its value is 2.

B2: EC MnSOD S126C, free thiol form (enzyme, Escherichia coli, UniProt P00448 1-206, looked up)
chain: MSYTLPSLPYAYDALEPHFDKQTMEIHHTKHHQTYVNNANAALESLPEFANLPVEELITKLDQLPADKKTVLRNNAGGHANHSLFWKGLKKGTTLQGDLKAAIERDFGSVDNFKAEFEKAAASRFGCGWAWLVLKGDKLAVVSTANQDSPLMGEAISGASGFPIMGLDVWEHAYYLKFQNRRPDYIKEFWNVVNWDEAAARFAAKK
modifications: Cys126 as free thiol (0.99 mol SH/mol protein)
How did the “stoichiometry N” value [2] turn out when B2 was run?
The value was 2.

B3: EC MnSOD S126C, disulfide form (enzyme, Escherichia coli, UniProt P00448 1-206, looked up)
chain: MSYTLPSLPYAYDALEPHFDKQTMEIHHTKHHQTYVNNANAALESLPEFANLPVEELITKLDQLPADKKTVLRNNAGGHANHSLFWKGLKKGTTLQGDLKAAIERDFGSVDNFKAEFEKAAASRFGCGWAWLVLKGDKLAVVSTANQDSPLMGEAISGASGFPIMGLDVWEHAYYLKFQNRRPDYIKEFWNVVNWDEAAARFAAKK
modifications: disulfide between Cys126 of the two subunits
B3 was tested. Which “stoichiometry N” value [3] did it give?
Its value is 2.

What about the “stoichiometry N” value [4] of the same protein?
The value was 2.

B4: EC MnSOD Y174C, disulfide form (enzyme, Escherichia coli, UniProt P00448 1-206, looked up)
chain: MSYTLPSLPYAYDALEPHFDKQTMEIHHTKHHQTYVNNANAALESLPEFANLPVEELITKLDQLPADKKTVLRNNAGGHANHSLFWKGLKKGTTLQGDLKAAIERDFGSVDNFKAEFEKAAASRFGSGWAWLVLKGDKLAVVSTANQDSPLMGEAISGASGFPIMGLDVWEHAYCLKFQNRRPDYIKEFWNVVNWDEAAARFAAKK
modifications: disulfide between Cys174 of the two subunits
How did the “stoichiometry N” value [5] turn out when B4 was run?
The value was 2.

B5: EC MnSOD (S126C/Y174C), double disulfide form (enzyme, Escherichia coli, UniProt P00448 1-206, looked up)
chain: MSYTLPSLPYAYDALEPHFDKQTMEIHHTKHHQTYVNNANAALESLPEFANLPVEELITKLDQLPADKKTVLRNNAGGHANHSLFWKGLKKGTTLQGDLKAAIERDFGSVDNFKAEFEKAAASRFGCGWAWLVLKGDKLAVVSTANQDSPLMGEAISGASGFPIMGLDVWEHAYCLKFQNRRPDYIKEFWNVVNWDEAAARFAAKK
modifications: disulfides between Cys126 and Cys126 and between Cys174 and Cys174 of the two subunits
How did the “stoichiometry N” value [5] turn out when B5 was run?
Its value is 2.

B6: EC MnSOD E170C, disulfide form (enzyme, Escherichia coli, UniProt P00448 1-206, looked up)
chain: MSYTLPSLPYAYDALEPHFDKQTMEIHHTKHHQTYVNNANAALESLPEFANLPVEELITKLDQLPADKKTVLRNNAGGHANHSLFWKGLKKGTTLQGDLKAAIERDFGSVDNFKAEFEKAAASRFGSGWAWLVLKGDKLAVVSTANQDSPLMGEAISGASGFPIMGLDVWCHAYYLKFQNRRPDYIKEFWNVVNWDEAAARFAAKK
modifications: disulfide between Cys170 of the two subunits
B6 was tested. Which “stoichiometry N” value [5] did it give?
The value was 2.

B7: EC MnSOD H171A (enzyme, Escherichia coli, UniProt P00448 1-206, looked up)
chain: MSYTLPSLPYAYDALEPHFDKQTMEIHHTKHHQTYVNNANAALESLPEFANLPVEELITKLDQLPADKKTVLRNNAGGHANHSLFWKGLKKGTTLQGDLKAAIERDFGSVDNFKAEFEKAAASRFGSGWAWLVLKGDKLAVVSTANQDSPLMGEAISGASGFPIMGLDVWEAAYYLKFQNRRPDYIKEFWNVVNWDEAAARFAAKK
B7 was tested. Which “stoichiometry N” value [6] did it give?
Its value is 2.
